Experimental data published in patent WO2018039626A1 (dated 2018).

B1: sdA1 (human single domain antibody targeting CD16A) (VHH)
VHH: EVQLVESGGGLVQPGGSLRLSCAASGFTFSNYGMSWVRQAPGKGLEWIGSIYYSGGSTNYNPSLKGSLVISRDNSKNTLYLQMNSLAEDTATYYCARESIDYWGQGTLVTVSS
notes: Human VH single domain (VH3-23 scaffold), not camelid; Purified by Ni-NTA and detected with anti-Flag-HRP, so His and Flag tags were present; also called sdAl; D6
B2: sdA2 (human single domain antibody targeting CD16A) (VHH)
VHH: EVQLVESGGGLVQPGGSLRLSCAASGFTFSSYGMSWVRQAPGKGLEWIGEVNHSGGSTNYNPSLKGSFVISRDNSKNTLYLQMNSLAEDTAVYYCARVGSFDFWGQGTLVTVSS
notes: Human VH single domain; His and Flag tags are implied (Ni-NTA, anti-Flag-HRP); also called E11; El 1

Target: T1, recombinant CD16A ectodomain (human, UniProt P08637 17-208)
T1 construct: extracellular domain
Test: ELISA, CD16A ectodomain coated at 50 ng/well, sdA detected with anti-Flag-HRP

T1 sequence (P08637 17-208): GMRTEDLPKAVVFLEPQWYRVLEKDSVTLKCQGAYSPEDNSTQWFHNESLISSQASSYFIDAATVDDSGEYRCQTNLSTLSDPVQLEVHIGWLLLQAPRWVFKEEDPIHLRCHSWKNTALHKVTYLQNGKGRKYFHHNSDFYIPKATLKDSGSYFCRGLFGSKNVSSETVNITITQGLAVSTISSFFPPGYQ

| Binder | EC50 |
| --- | --- |
| B1 | 0.1 nM |
| B2 | 0.3 nM |
